Experimental data reported in patent publication US11505811B2, “Method for the preparation of 2,4-dihydroxybutyrate” (ADISSEO FRANCE S.A.S., priority 2012, dated 2022).

B1: Q85NI226V: L. lactis lactate dehydrogenase A, Ll-LdhA, mutant Q85N I226V, SEQ ID No. 32 (protein, listed as Lactococcus lactis)
chain: MADKQRKKVILVGDGAVGSSYAFALVNQGIAQELGIVDLFKEKTQGDAEDLSHALAFTSPKKIYSADYSDASDADLVVLTSGAPNKPGETRLDLVEKNLRITKDVVTKIVASGFKGIFLVAANPVDILTYATWKFSGFPKNRVVGSGTSLDTARFRQALAEKVDVDARSIHAYIMGEHGDSEFAVWSHANVAGVKLEQWFQENDYLNEAEIVELFESVRDAAYSIVAKKGATFYGVAVALARITKAILDDEHAVLPVSVFQDGQYGVSDCYLGQPAVVGAEGVVNPIHIPLNDAEMQKMEASGAQLKAIIDEAFAKEEFASAVKN
B2: Ll-BcaT: branched-chain-amino-acid transaminase from Lactococcus lactis, SEQ ID No. 68 (protein, listed as Lactococcus lactis)
chain: MAINLDWENLGFSYRNLPFRYIARFKDGKWSAGELTGDNQLHISESSPALHYGQQGFEGLKAYRTKDGSIQLFRPDQNAARLQNTARRLCMAEVPTEMFIDAVKQVVKANEDFVPPYGTGATLYLRPLLIGVGDVIGVKPADEYIFTVFAMPVGSYFKGGLAPSKFVISRDYDRAAPLGTGGAKVGGNYAASLQAEVGAKASGYADAIYLDPSTHTKIEEVGAANFFGITADNEFITPLSPSILPSITKYSLLYLAEHRLGLKAIEGEVYAKDLGKFVEAGACGTAAIISPIGRIDDGEDSYIFHSETEVGPTVKRLYDELVGIQFGDVEAPEGWIVKVD
B3: Ec-TyrB: aromatic-amino-acid transaminase from E. coli, SEQ ID No. 62 (protein, listed as Escherichia coli)
chain: VFQKVDAYAGDPILTLMERFKEDPRSDKVNLSIGLYYNEDGIIPQLQAVAEAEARLNAQPHGASLYLPMEGLNCYRHAIAPLLFGADHPVLKQQRVATIQTLGGSGALKVGADFLKRYFPESGVWVSDPTWENHVAIFAGAGFEVSTYPWYDEATNGVRFNDLLATLKTLPARSIVLLHPCCHNPTGADLTNDQWDAVIEILKARELIPFLDIAYQGFGAGMEEDAYAIRAIASAGLPALVSNSFSKIFSLYGERVGGLSVMCEDAEAAGRVLGQLKATVRRNYSSPPNFGAQVVAAVLNDEALKASWLAEVEEMRTRILAMRQELVKVLSTEMPERNFDYLLNQRGMFSYTGLSAAQVDRLREEFGVYLIASGRMCVAGLNTANVQRVAKAFAAVM
B4: Sc-ARO8: aromatic-amino-acid transaminase from Saccharomyces cerevisiae, SEQ ID No. 70 (protein, listed as Saccharomyces cerevisiae)
chain: MTLPESKDFSYLFSDETNARKPSPLKTCIHLFQDPNIIFLGGGLPLKDYFPWDNLSVDSPKPPFPQGIGAPIDEQNCIKYTVNKDYADKSANPSNDIPLSRALQYGFSAGQPELLNFIRDHTKIIHDLKYKDWDVLATAGNTNAWESTLRVFCNRGDVILVEAHSFSSSLASAEAQGVITFPVPIDADGIIPEKLAKVMENWTPGAPKPKLLYTIPTGQNPTGTSIADHRKEAIYKIAQKYDFLIVEDEPYYFLQMNPYIKDLKEREKAQSSPKQDHDEFLKSLANTFLSLDTEGRVIRMDSFSKVLAPGTRLGWITGSSKILKPYLSLHEMTIQAPAGFTQVLVNATLSRWGQKGYLDWLLGLRHEYTLKRDCAIDALYKYLPQSDAFVINPPIAGMFFTVNIDASVHPEFKTKYNSDPYQLEQSLYHKVVERGVLVVPGSWFKSEGETEPPQPAESKEVSNPNIIFFRGTYAAVSPEKLTEGLKRLGDTLYEEFGISK
B5: Ec-IlvE: branched-chain-amino-acid transaminase from Escherichia coli, SEQ ID No. 60 (protein, listed as Escherichia coli)
chain: MTTKKADYIWFNGEMVRWEDAKVHVMSHALHYGTSVFEGIRCYDSHKGPVVFRHREHMQRLHDSAKIYRFPVSQSIDELMEACRDVIRKNNLTSAYIRPLIFVGDVGMGVNPPAGYSTDVIIAAFPWGAYLGAEALEQGIDAMVSSWNRAAPNTIPTAAKAGGNYLSSLLVGSEARRHGYQEGIALDVNGYISEGAGENLFEVKDGVLFTPPFTSSALPGITRDAIIKLAKELGIEVREQVLSRESLYLADEVFMSGTAAEITPVRSVDGIQVGEGRCGPVTKRIQQAFFGLFTGETEDKWGWLDQVNQ
B6: Ec-AspC: aspartate transaminase from E. coli, SEQ ID No. 64 (protein, listed as Escherichia coli)
chain: MFENITAAPADPILGLADLFRADERPGKINLGIGVYKDETGKTPVLTSVKKAEQYLLENETTKNYLGIDGIPEFGRCTQELLFGKGSALINDKRARTAQTPGGTGALRVAADFLAKNTSVKRVWVSNPSWPNHKSVFNSAGLEVREYAYYDAENHTLDFDALINSLNEAQAGDVVLFHGCCHNPTGIDPTLEQWQTLAQLSVEKGWLPLFDFAYQGFARGLEEDAEGLRAFAAMHKELIVASSYSKNFGLYNERVGACTLVAADSETVDRAFSQMKAAIRANYSNPPAHGASVVATILSNDALRAIWEQELTDMRQRIQRMRQLFVNTLQEKGANRDFSFIIKQNGMFSFSGLTKEQVLRLREEFGVYAVASGRVNVAGMTPDNMAPLCEAIVAVL
B7: Ll-AraT: aromatic-amino-acid transaminase from L. lactis, SEQ ID No. 66 (protein, listed as Lactococcus lactis)
chain: MDLLKKFNPNLDKIEISLIRQFDQQVSSIPDVIKLTLGEPDFYTPEHVKQAGIVAIENNQSHYTGMAGLLELRQAASEFMNKKYGLSYAAEDEILVTVGVTEAISSVLLSILVAGDEVLIPAPAYPGYEPLITLAGGSLVEIDTRANDFVLTPEMLEQAIVEREGKVKAVILNYPANPTGVTYNRGQIKALAEVLKKHEVFVIADEVYSELNYTDQPHVSIAEYAPEQTIVLNGLSKSHAMTGWRIGLIFAARELVAQIIKTHQYLVTSASTQSQFAAIEALKNGAYDALPMKKEYLKRRDYIIEKMSDLGFKIIEPDGAFYIFAKIPADLEQDSFKFAVDFAKENAVAIIPGIAFGQYGEGFVRLSYAASMDMIEQAMARLTDYVTKKRG

How the values were obtained:
Assay type in all cases: biochemical
[1] = OHB reductase activity, NADH absorption at 340 nm; details: L. lactis Ll-LdhA mutants
Description: (§1) Enzymatic assays: The reaction mixture contained 60 mM Hepes (pH 7), 50 mM potassium chloride, 5 mM MgCl2, 0.25 mM NADH, (optionally 5 mM fructose-1,6-bisphosphate) (all products from Sigma), and appropriate amounts of purified malate or lactate dehydrogenase or cell extract. Reactions were started by adding appropriate amounts of 2-oxo-4-hydroxybutyrate (OHB), pyruvate, or oxaloacetate (OAA). Enzymatic assays were carried out at 37° C. in 96-well flat bottomed microtiter plates in a final volume of 250 μL. The reactions were followed by the characteristic absorption of NADH at 340 nm (εNADH=6.22 mM^−1 cm^−1) in a microplate reader (BioRad 680XR).
OHB was synthesized by incubating 125 mM homoserine with snake venom (L)-amino acid oxidase (1.25 U/mL, Sigma) and catalase (4400 U/mL, Sigma) in 100 mM Tris buffer at pH 7.8 for 90 min at 37° C. Subsequently, the reaction mixture was purified on an Amicon™ Ultra centrifugal filter with a cut-off of 10 kDa to eliminate the enzymes (method adapted from Wellner & Lichtenberg, 1971).
OHB was quantified by mixing 100 μL of the tested solution with 1 mL of a solution containing 1 M sodium arsenate and 1 M boric acid at pH 6.5. The mixture was incubated at room temperature for 30 min and the absorbance at 325 nm was used to quantify OHB. The relation between absorbance and concentration of the ketone was calibrated using pyruvate solutions of known concentrations (method adapted from (Wellner & Lichtenberg, 1971)). The typical OHB yield of the method was 90%.

[2] = pyruvate reductase activity, NADH absorption at 340 nm; details: L. lactis Ll-LdhA mutants
Description: as §1

[3] = homoserine transaminase activity, coupled dehydrogenase assay; details: measured at 50 mM homoserine; 2-oxoglutarate as acceptor
Description: (§2) Enzymatic assays: Transaminase activity of several candidate aminotransferases was quantified with 2-oxoglutarate as the amino group acceptor. Transaminase reactions were carried out using homoserine and the preferred amino acid of the enzymes. The reactions were followed by the amino acid-dependent oxidation of NADH in the coupled dehydrogenase reaction.
(§3) Transaminase Assays (Reaction Scheme)
(§4) Transaminase: Amino acid+2-oxoglutarate→2-oxo-acid+glutamate
(§5) Dehydrogenase: 2-oxo-acid+NADH→2-hydroxy-acid+NAD^+
The reaction mixture contained 60 mM Hepes (pH 7), 50 mM potassium chloride, 5 mM MgCl2, 4 mM 2-oxoglutarate, 0.1 mM pyridoxal-5′-phosphate (PLP), 0.25 mM NADH, (optionally 5 mM fructose-1,6-bisphosphate) (all products from Sigma), 4 Units/mL of auxiliary 2-hydroxyacid dehydrogenase, and appropriate amounts of purified aminotransferase or cell extract. The auxiliary dehydrogenase enzyme was purified PanE from L. lactis in case of the amino acids phenylalanine and leucine (Chambellon, Rijnen, Lorquet, Gitton, van HylckamaVlieg, Wouters, & Yvon, 2009), malate dehydrogenase (Sigma) in case of aspartate, and rabbit muscle (L)-lactate dehydrogenase (Sigma) when homoserine was used as the starting substrate. Reactions were started by adding 50 mM of the amino acid.
(§6) Enzymatic assays were carried out at 37° C. in 96-well flat bottomed microtiter plates in a final volume of 250 μL. The reactions were followed by the characteristic absorption of NAD(P)H at 340 nm (εNADPH=6.22 mM^−1 cm^−1) in a microplate reader (BioRad 680XR).

[4] = transaminase activity on preferred amino acid (L), coupled dehydrogenase assay; details: superscript (L); 50 mM amino acid; 2-oxoglutarate as acceptor
Description: as §2, §3, §4, §5
(§7) The reaction mixture contained 60 mM Hepes (pH 7), 50 mM potassium chloride, 5 mM MgCl2, 4 mM 2-oxoglutarate, 0.1 mM pyridoxal-5′-phosphate (PLP), 0.25 mM NADH, (optionally 5 mM fructose-1,6-bisphosphate) (all products from Sigma), 4 Units/mL of auxiliary 2-hydroxyacid dehydrogenase, and appropriate amounts of purified aminotransferase or cell extract. […]
as §6

[5] = transaminase activity on preferred amino acid (A), coupled dehydrogenase assay; details: superscript (A); 50 mM amino acid; 2-oxoglutarate as acceptor
Description: as §2, §3, §4, §5, §7, §6

Molecule | Max. specific activity on Homoserine [3] | also measured
B1 | – | Max. specific activity, OHB [1]: 4.9 µmol/mg/min; Max. specific activity, Pyruvate [2]: 11.5 µmol/mg/min
B2 | 0.028 μmol/(min mgprot) | Max. specific activity on preferred amino acid (L) [4]: 30.39^(L) μmol/(min mgprot)
B3 | 0.057 μmol/(min mgprot) | –
B4 | 0.076 μmol/(min mgprot) | –
B5 | 0.077 μmol/(min mgprot) | Max. specific activity on preferred amino acid (L) [4]: 10.3^(L) μmol/(min mgprot)
B6 | 0.082 μmol/(min mgprot) | Max. specific activity on preferred amino acid (A) [5]: 74.031^(A) μmol/(min mgprot)
B7 | 0.109 μmol/(min mgprot) | –
